Assay results published in patent publication US20190135918A1 (ICHNOS SCIENCES, published 2019).

Tests used:
[1] = target: T1, soluble extracellular region of cynomolgus monkey CD38 antigen fused to a 6-His-tag (cynomolgus monkey, UniProt Q5VAN0 45-301); test: SPR
T1 construct: also called cynomolgus CD38

[2] = target: T2, F4 (peptide-Fc fusion derived from the extracellular domain of human CD38) (human, UniProt P0DOX5 223-449 = IgG part); test: SPR, antibody immobilized, peptide-Fc fusion injected
T2 construct: As F1; by count CD38 residues 82-94

[3] = target: T3, F5 (peptide-Fc fusion derived from the extracellular domain of human CD38) (human, UniProt P0DOX5 223-449 = IgG part); test: as above
T3 construct: As F1; by count CD38 residues 95-107

[4] = target: T4, F6 (peptide-Fc fusion derived from the extracellular domain of human CD38) (human, UniProt P0DOX5 195-449 = IgG part); test: as above
T4 construct: As F1; by count CD38 residues 108-120 (holds M110)

[5] = target: T5, F7 (peptide-Fc fusion derived from the extracellular domain of human CD38) (human, UniProt P0DOX5 223-449 = IgG part); test: as above
T5 construct: As F1; by count CD38 residues 121-133

[6] = target: T6, F8 (peptide-Fc fusion derived from the extracellular domain of human CD38) (human, UniProt P0DOX5 223-449 = IgG part); test: as above
T6 construct: As F1; by count CD38 residues 134-146

[7] = target: T7, F9 (peptide-Fc fusion derived from the extracellular domain of human CD38) (human, UniProt P0DOX5 223-449 = IgG part); test: as above
T7 construct: As F1; by count CD38 residues 147-159

[8] = target: T8, F10 (peptide-Fc fusion derived from the extracellular domain of human CD38) (human, UniProt P0DOX5 223-449 = IgG part); test: as above
T8 construct: As F1; by count CD38 residues 160-172

[9] = target: T9, F11 (peptide-Fc fusion derived from the extracellular domain of human CD38) (human, UniProt P0DOX5 223-449 = IgG part); test: as above
T9 construct: As F1; by count CD38 residues 173-185

[10] = target: T10, F14 (peptide-Fc fusion derived from the extracellular domain of human CD38) (human, UniProt P0DOX5 223-449 = IgG part); test: as above
T10 construct: As F1; by count CD38 residues 212-224

[11] = target: T11, F16 (peptide-Fc fusion derived from the extracellular domain of human CD38) (human, UniProt P0DOX5 223-449 = IgG part); test: as above
T11 construct: As F1; by count CD38 residues 238-250

[12] = target: T12, F18 (peptide-Fc fusion derived from the extracellular domain of human CD38) (human, UniProt P0DOX5 223-449 = IgG part); test: as above
T12 construct: As F1; by count CD38 residues 264-276

[13] = target: T13, F19 (peptide-Fc fusion derived from the extracellular domain of human CD38) (human, UniProt P0DOX5 223-449 = IgG part); test: as above
T13 construct: As F1; by count CD38 residues 277-289

[14] = target: T14, soluble extracellular region of human CD38 fused to a 6-His-tag (human, UniProt P28907 43-300); test: SPR, equilibrium response, antibody captured on protein G
T14 construct: Expressed with the murine VJ2C leader; also called human CD38 protein; human CD38 antigen

[15] = target: T15, F1 (peptide-Fc fusion derived from the extracellular domain of human CD38) (human, UniProt P0DOX5 223-449 = IgG part); test: SPR, human 767 antibody immobilized on the chip, peptide-Fc fusion injected
T15 construct: 13-residue peptide fused to human IgG1 Fc (CH2-CH3) with an Ala-Ser linker; by count CD38 residues 43-55

[16] = target: T16, F2 (peptide-Fc fusion derived from the extracellular domain of human CD38) (human, UniProt P0DOX5 223-449 = IgG part); test: as above
T16 construct: As F1; by count CD38 residues 56-68

[17] = target: T17, F12 (peptide-Fc fusion derived from the extracellular domain of human CD38) (human, UniProt P0DOX5 223-449 = IgG part); test: as above
T17 construct: As F1; by count CD38 residues 186-198

[18] = target: T18, F13 (peptide-Fc fusion derived from the extracellular domain of human CD38) (human, UniProt P0DOX5 223-449 = IgG part); test: as above
T18 construct: As F1; by count CD38 residues 199-211

[19] = target: T19, F15 (peptide-Fc fusion derived from the extracellular domain of human CD38) (human, UniProt P0DOX5 223-449 = IgG part); test: as above
T19 construct: As F1; by count CD38 residues 225-237

[20] = target: T20, F17 (peptide-Fc fusion derived from the extracellular domain of human CD38) (human, UniProt P0DOX5 223-449 = IgG part); test: as above
T20 construct: As F1; by count CD38 residues 251-263

[21] = target: T21, F20 (peptide-Fc fusion derived from the extracellular domain of human CD38) (human, UniProt P0DOX5 223-449 = IgG part); test: as above
T21 construct: Final peptide of 11 amino acids, else as F1; by count CD38 residues 290-300

[22] = target: T22, F3 (peptide-Fc fusion derived from the extracellular domain of human CD38) (human, UniProt P0DOX5 223-449 = IgG part); test: SPR, antibody immobilized on the chip, peptide-Fc fusion injected (1000 nM per paragraph 238)
T22 construct: As F1; by count CD38 residues 69-81; also called F3 construct

[23] = target: T15, F1 (peptide-Fc fusion derived from the …); test: SPR, antibody immobilized, peptide-Fc fusion injected
[24] = target: T16, F2 (peptide-Fc fusion derived from the …); test: as above
[25] = target: T22, F3 (peptide-Fc fusion derived from the …); test: as above
[26] = target: T18, F13 (peptide-Fc fusion derived from the …); test: as above
[27] = target: T20, F17 (peptide-Fc fusion derived from the …); test: as above
[28] = target: T21, F20 (peptide-Fc fusion derived from the …); test: as above
[29] = target: T8, F10 (peptide-Fc fusion derived from the …); test: SPR, humanized 9G7 immobilized on the chip, peptide-Fc fusion injected
[30] = target: T9, F11 (peptide-Fc fusion derived from the …); test: as above
[31] = target: T17, F12 (peptide-Fc fusion derived from the …); test: as above
[32] = target: T10, F14 (peptide-Fc fusion derived from the …); test: as above
[33] = target: T19, F15 (peptide-Fc fusion derived from the …); test: as above
[34] = target: T11, F16 (peptide-Fc fusion derived from the …); test: as above
[35] = target: T12, F18 (peptide-Fc fusion derived from the …); test: as above
[36] = target: T13, F19 (peptide-Fc fusion derived from the …); test: as above

B1: human 767 antibody (antibody, human IgG1, kappa, V domains shown)
VH: QVQLVESGGGLVQPGGSLRLSCAASGFTFSSYWMSWVRQAPGKGLEWVANIKQDGSEKYYVDSVKGRFTISRDNAKNSLYLQMNSLRAEDTAVYYCAREGRTGYFDYWGQGTLVTVSS
VL: QSVLTQPPSASGTPGQRVTISCSGSTSNIGTNYVYWYQQLPGTAPKLLIYRNDQRPSGVPDRFSGSKSGTSASLAISGLRSEDEADYYCAAWDDSRSGVYAFGTGTKVTVLR
notes: Human IgG1
Kd [1]: ~1200 nM
binding result [2]: no binding (tested: 1000 nM)
binding result [3]: no binding (tested: 1000 nM)
binding result [4]: no binding (tested: 1000 nM)
binding result [5]: no binding (tested: 1000 nM)
binding result [6]: no binding (tested: 1000 nM)
binding result [7]: no binding (tested: 1000 nM)
binding result [8]: no binding (tested: 1000 nM)
binding result [9]: no binding (tested: 1000 nM)
binding result [10]: no binding (tested: 1000 nM)
binding result [11]: no binding (tested: 1000 nM)
binding result [12]: no binding (tested: 1000 nM)
binding result [13]: no binding (tested: 1000 nM)
Kd [14]: ~300 nM
binding result [15]: no binding
binding result [16]: no binding
binding result [17]: no binding
binding result [18]: no binding
binding result [19]: no binding
binding result [20]: no binding
binding result [21]: no binding
binding result [22]: binds

B2: humanized 9G7 antibody (best-fit version) as used in Example 10 (antibody, human IgG1, kappa, V domains shown)
VH: QVTLKESGPTLVKPTQTLTLTCTFSGLSLSTSGKGVGWIRQPPGKALEWLAHIWWDDDKRYNPALKSRLTITKDTSKNQVVLTMTNMDPVDTATYYCARIELGRSYVMDYWGQGTLVTVSS
VL: DIQMTQSPSSLSASVGDRVTITCQASQDVITSVAWFQQKPGKAPKLLIYSASYRYTGVPSRFSGSGSGTDFTFTISSLQPEDIATYYCQQHYTIPLTFGQGTKLEIKR
notes: also called h9G7
binding result [23]: no binding (tested: 15 nM; 200 nM)
binding result [24]: no binding (tested: 15 nM; 200 nM)
binding result [25]: no binding (tested: 15 nM; 200 nM)
binding result [2]: no binding (tested: 15 nM; 200 nM)
binding result [3]: no binding (tested: 15 nM; 200 nM)
binding result [5]: no binding (tested: 15 nM; 200 nM)
binding result [6]: no binding (tested: 15 nM; 200 nM)
binding result [7]: no binding (tested: 15 nM; 200 nM)
binding result [26]: no binding (tested: 15 nM; 200 nM)
binding result [27]: no binding (tested: 15 nM; 200 nM)
binding result [28]: no binding (tested: 15 nM; 200 nM)
binding result [29]: no binding (tested: 15 nM)
binding result [30]: no binding (tested: 15 nM)
binding result [31]: no binding (tested: 15 nM)
binding result [32]: no binding (tested: 15 nM)
binding result [33]: no binding (tested: 15 nM)
binding result [34]: no binding (tested: 15 nM)
binding result [35]: no binding (tested: 15 nM)
binding result [36]: no binding (tested: 15 nM)
